Experimental data as given in publication PMC10786891, “Massively parallel profiling of RNA-targeting CRISPR-Cas13d”.

Target: T1, EsCas13d, nuclease-dead (Eubacterium siraeum, UniProt B0MS50, R295A;H300A;R849A;H854A)
T1 sequence: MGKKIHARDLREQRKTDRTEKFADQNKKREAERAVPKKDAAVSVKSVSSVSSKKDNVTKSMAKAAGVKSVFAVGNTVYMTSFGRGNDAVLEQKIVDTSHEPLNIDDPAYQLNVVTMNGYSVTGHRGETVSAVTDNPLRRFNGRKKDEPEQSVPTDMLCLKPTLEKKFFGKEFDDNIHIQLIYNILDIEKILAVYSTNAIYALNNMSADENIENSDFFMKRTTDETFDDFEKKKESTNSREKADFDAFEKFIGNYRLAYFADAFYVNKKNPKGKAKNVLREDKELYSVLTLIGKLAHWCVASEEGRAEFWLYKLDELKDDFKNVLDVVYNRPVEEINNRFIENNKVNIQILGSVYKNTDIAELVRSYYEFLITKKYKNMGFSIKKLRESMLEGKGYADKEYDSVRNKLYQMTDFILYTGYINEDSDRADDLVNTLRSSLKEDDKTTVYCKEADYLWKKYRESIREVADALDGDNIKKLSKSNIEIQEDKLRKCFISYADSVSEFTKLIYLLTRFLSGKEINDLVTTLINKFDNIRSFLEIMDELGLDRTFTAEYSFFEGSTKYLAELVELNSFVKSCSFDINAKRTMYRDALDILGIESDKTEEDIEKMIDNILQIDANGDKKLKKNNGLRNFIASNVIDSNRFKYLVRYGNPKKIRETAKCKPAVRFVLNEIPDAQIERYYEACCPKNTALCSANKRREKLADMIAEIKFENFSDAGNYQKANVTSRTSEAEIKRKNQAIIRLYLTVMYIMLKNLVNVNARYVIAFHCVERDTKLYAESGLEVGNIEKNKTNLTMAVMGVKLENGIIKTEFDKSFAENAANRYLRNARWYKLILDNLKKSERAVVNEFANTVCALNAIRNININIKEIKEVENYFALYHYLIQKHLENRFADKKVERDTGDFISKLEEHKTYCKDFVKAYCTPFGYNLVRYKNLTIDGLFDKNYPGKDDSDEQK
Test: crRNA (strand 1, pre-loaded); Mg2+; 40 mM Tris-HCl pH 7.5, 150 mM NaCl, 6 mM MgCl2, 1 mM DTT, 0.1% Tween-20, 0.2 mg/ml BSA; 25 C; 10 min per concentration, then washed
Conditions: tags: His6-TwinStrep-SUMO cleaved; N-terminal SNAP kept (SNAP-Surface 488); label: 3' end held by stalled T7 RNA polymerase

| Binder | Kd |
| --- | --- |
| target 1 MT 5'PFS UUG 3'PFS UAU (mixed) RNA 1: CACCCGUGCAAAAAUGCAGGGGUCUAAAACUGAGCGGAUAACCUCUCUAUGG RNA 2: GGGAAUGGAUCCACAUCUACGAAUUCUUGCCAUAGAGAGGUUAUCCGCUCAUAUAGAUCGGAAGAGCACACGU | 16.9 ± 2.45 nM |
| target 1 MT 5'PFS GUA 3'PFS GUG (mixed) RNA 1: CACCCGUGCAAAAAUGCAGGGGUCUAAAACUGAGCGGAUAACCUCUCUAUGG RNA 2: GGGAAUGGAUCCACAUCUACGAAUUCGUACCAUAGAGAGGUUAUCCGCUCAGUGAGAUCGGAAGAGCACACGU | 8.5 ± 0.95 nM |
| target 1 MT 5'PFS CUC 3'PFS UUA (mixed) RNA 1: CACCCGUGCAAAAAUGCAGGGGUCUAAAACUGAGCGGAUAACCUCUCUAUGG RNA 2: GGGAAUGGAUCCACAUCUACGAAUUCCUCCCAUAGAGAGGUUAUCCGCUCAUUAAGAUCGGAAGAGCACACGU | ~43.5 nM |
| target 1 MT 5'PFS CCC 3'PFS AGC (mixed) RNA 1: CACCCGUGCAAAAAUGCAGGGGUCUAAAACUGAGCGGAUAACCUCUCUAUGG RNA 2: GGGAAUGGAUCCACAUCUACGAAUUCCCCCCAUAGAGAGGUUAUCCGCUCAAGCAGAUCGGAAGAGCACACGU | ~40 nM |
| target 1 MT 5'PFS UCG 3'PFS ACU (mixed) RNA 1: CACCCGUGCAAAAAUGCAGGGGUCUAAAACUGAGCGGAUAACCUCUCUAUGG RNA 2: GGGAAUGGAUCCACAUCUACGAAUUCUCGCCAUAGAGAGGUUAUCCGCUCAACUAGAUCGGAAGAGCACACGU | 28 ± 10 nM |
| target 1 MT 5'PFS GUA 3'PFS GUC (mixed) RNA 1: CACCCGUGCAAAAAUGCAGGGGUCUAAAACUGAGCGGAUAACCUCUCUAUGG RNA 2: GGGAAUGGAUCCACAUCUACGAAUUCGUACCAUAGAGAGGUUAUCCGCUCAGUCAGAUCGGAAGAGCACACGU | 9.35 ± 1 nM |
| target 1 MT 5'PFS AAC 3'PFS AUU (mixed) RNA 1: CACCCGUGCAAAAAUGCAGGGGUCUAAAACUGAGCGGAUAACCUCUCUAUGG RNA 2: GGGAAUGGAUCCACAUCUACGAAUUCAACCCAUAGAGAGGUUAUCCGCUCAAUUAGAUCGGAAGAGCACACGU | ~21 nM |
| target 1 MT 5'PFS UUA 3'PFS AAA (mixed) RNA 1: CACCCGUGCAAAAAUGCAGGGGUCUAAAACUGAGCGGAUAACCUCUCUAUGG RNA 2: GGGAAUGGAUCCACAUCUACGAAUUCUUACCAUAGAGAGGUUAUCCGCUCAAAAAGAUCGGAAGAGCACACGU | ~85 nM |
| target 1 U19G,A20C (mixed) RNA 1: CACCCGUGCAAAAAUGCAGGGGUCUAAAACUGAGCGGAUAACCUCUCUAUGG RNA 2: GGGAAUGGAUCCACAUCUACGAAUUCGUACCCGAGAGAGGUUAUCCGCUCACCGAGAUCGGAAGAGCACACGU | 80 ± 40 nM |
| target 1 MT 5'PFS GCG 3'PFS CGC (mixed) RNA 1: CACCCGUGCAAAAAUGCAGGGGUCUAAAACUGAGCGGAUAACCUCUCUAUGG RNA 2: GGGAAUGGAUCCACAUCUACGAAUUCGCGCCAUAGAGAGGUUAUCCGCUCACGCAGAUCGGAAGAGCACACGU | ~80 nM |
| target 1 MT 5'PFS GCG 3'PFS CGU (mixed) RNA 1: CACCCGUGCAAAAAUGCAGGGGUCUAAAACUGAGCGGAUAACCUCUCUAUGG RNA 2: GGGAAUGGAUCCACAUCUACGAAUUCGCGCCAUAGAGAGGUUAUCCGCUCACGUAGAUCGGAAGAGCACACGU | ~70 nM |
| target 1 insG 3' of 11,insC 3' of 5 (mixed) RNA 1: CACCCGUGCAAAAAUGCAGGGGUCUAAAACUGAGCGGAUAACCUCUCUAUGG RNA 2: GGGAAUGGAUCCACAUCUACGAAUUCGUACCAUAGAGAGGUGUAUCCGCCUCACCGAGAUCGGAAGAGCACACGU | 78 ± 21 nM |
| target 1 MT 5'PFS UUA 3'PFS AAC (mixed) RNA 1: CACCCGUGCAAAAAUGCAGGGGUCUAAAACUGAGCGGAUAACCUCUCUAUGG RNA 2: GGGAAUGGAUCCACAUCUACGAAUUCUUACCAUAGAGAGGUUAUCCGCUCAAACAGAUCGGAAGAGCACACGU | 34 ± 10.5 nM |
| target 1 MT 5'PFS GUG 3'PFS UAA (mixed) RNA 1: CACCCGUGCAAAAAUGCAGGGGUCUAAAACUGAGCGGAUAACCUCUCUAUGG RNA 2: GGGAAUGGAUCCACAUCUACGAAUUCGUGCCAUAGAGAGGUUAUCCGCUCAUAAAGAUCGGAAGAGCACACGU | 14.8 ± 0.95 nM |
| target 1 C4U,A9G (mixed) RNA 1: CACCCGUGCAAAAAUGCAGGGGUCUAAAACUGAGCGGAUAACCUCUCUAUGG RNA 2: GGGAAUGGAUCCACAUCUACGAAUUCGUACCAUAGAGAGGUUGUCCGUUCACCGAGAUCGGAAGAGCACACGU | 42 ± 8 nM |
| target 1 MT 5'PFS CAG 3'PFS AAC (mixed) RNA 1: CACCCGUGCAAAAAUGCAGGGGUCUAAAACUGAGCGGAUAACCUCUCUAUGG RNA 2: GGGAAUGGAUCCACAUCUACGAAUUCCAGCCAUAGAGAGGUUAUCCGCUCAAACAGAUCGGAAGAGCACACGU | 75 ± 36.5 nM |
| target 1 MT 5'PFS GCG 3'PFS CGG (mixed) RNA 1: CACCCGUGCAAAAAUGCAGGGGUCUAAAACUGAGCGGAUAACCUCUCUAUGG RNA 2: GGGAAUGGAUCCACAUCUACGAAUUCGCGCCAUAGAGAGGUUAUCCGCUCACGGAGAUCGGAAGAGCACACGU | 67.5 ± 27.5 nM |
| target 1 MT 5'PFS CCG 3'PFS UGU (mixed) RNA 1: CACCCGUGCAAAAAUGCAGGGGUCUAAAACUGAGCGGAUAACCUCUCUAUGG RNA 2: GGGAAUGGAUCCACAUCUACGAAUUCCCGCCAUAGAGAGGUUAUCCGCUCAUGUAGAUCGGAAGAGCACACGU | 9.95 ± 2.7 nM |
| target 1 C2G,G5C (mixed) RNA 1: CACCCGUGCAAAAAUGCAGGGGUCUAAAACUGAGCGGAUAACCUCUCUAUGG RNA 2: GGGAAUGGAUCCACAUCUACGAAUUCGUACCAUAGAGAGGUUAUCCCCUGACCGAGAUCGGAAGAGCACACGU | 14 ± 1.1 nM |
| target 1 MT 5'PFS GUG 3'PFS UAG (mixed) RNA 1: CACCCGUGCAAAAAUGCAGGGGUCUAAAACUGAGCGGAUAACCUCUCUAUGG RNA 2: GGGAAUGGAUCCACAUCUACGAAUUCGUGCCAUAGAGAGGUUAUCCGCUCAUAGAGAUCGGAAGAGCACACGU | 16 ± 1.5 nM |
| target 1 MT 5'PFS CCG 3'PFS UGC (mixed) RNA 1: CACCCGUGCAAAAAUGCAGGGGUCUAAAACUGAGCGGAUAACCUCUCUAUGG RNA 2: GGGAAUGGAUCCACAUCUACGAAUUCCCGCCAUAGAGAGGUUAUCCGCUCAUGCAGAUCGGAAGAGCACACGU | 2.6 ± 0.75 nM |
| target 1 MT 5'PFS GCG 3'PFS CGA (mixed) RNA 1: CACCCGUGCAAAAAUGCAGGGGUCUAAAACUGAGCGGAUAACCUCUCUAUGG RNA 2: GGGAAUGGAUCCACAUCUACGAAUUCGCGCCAUAGAGAGGUUAUCCGCUCACGAAGAUCGGAAGAGCACACGU | 49.5 ± 17 nM |
| target 1 MT 5'PFS GUG 3'PFS UAC (mixed) RNA 1: CACCCGUGCAAAAAUGCAGGGGUCUAAAACUGAGCGGAUAACCUCUCUAUGG RNA 2: GGGAAUGGAUCCACAUCUACGAAUUCGUGCCAUAGAGAGGUUAUCCGCUCAUACAGAUCGGAAGAGCACACGU | 19.9 ± 2.05 nM |
| target 1 MT 5'PFS GUA 3'PFS GUU (mixed) RNA 1: CACCCGUGCAAAAAUGCAGGGGUCUAAAACUGAGCGGAUAACCUCUCUAUGG RNA 2: GGGAAUGGAUCCACAUCUACGAAUUCGUACCAUAGAGAGGUUAUCCGCUCAGUUAGAUCGGAAGAGCACACGU | 11.4 ± 1.05 nM |
| target 1 C4G,A20U (mixed) RNA 1: CACCCGUGCAAAAAUGCAGGGGUCUAAAACUGAGCGGAUAACCUCUCUAUGG RNA 2: GGGAAUGGAUCCACAUCUACGAAUUCGUACCUUAGAGAGGUUAUCCGGUCACCGAGAUCGGAAGAGCACACGU | 17.5 ± 2 nM |
| target 1 MT 5'PFS CUC 3'PFS UUC (mixed) RNA 1: CACCCGUGCAAAAAUGCAGGGGUCUAAAACUGAGCGGAUAACCUCUCUAUGG RNA 2: GGGAAUGGAUCCACAUCUACGAAUUCCUCCCAUAGAGAGGUUAUCCGCUCAUUCAGAUCGGAAGAGCACACGU | ~55 nM |
| target 1 MT 5'PFS GUG 3'PFS UAU (mixed) RNA 1: CACCCGUGCAAAAAUGCAGGGGUCUAAAACUGAGCGGAUAACCUCUCUAUGG RNA 2: GGGAAUGGAUCCACAUCUACGAAUUCGUGCCAUAGAGAGGUUAUCCGCUCAUAUAGAUCGGAAGAGCACACGU | 11.3 ± 0.8 nM |
| target 1 MT 5'PFS UAG 3'PFS CUU (mixed) RNA 1: CACCCGUGCAAAAAUGCAGGGGUCUAAAACUGAGCGGAUAACCUCUCUAUGG RNA 2: GGGAAUGGAUCCACAUCUACGAAUUCUAGCCAUAGAGAGGUUAUCCGCUCACUUAGAUCGGAAGAGCACACGU | 28 ± 5.5 nM |
